Results on two molecules are retold here after patent publication US20070173444A1 (AFFYMAX, published 2007).

Bridge positions count the residues as written; N and C are the ends. Ends that are not written are not given here.

Experiment [1] deals with T1, native IL-5R a/β complex on TF-1 cells (human, UniProt Q01344 21-420; P32927 17-897).
T1 sequence (looked up) 1: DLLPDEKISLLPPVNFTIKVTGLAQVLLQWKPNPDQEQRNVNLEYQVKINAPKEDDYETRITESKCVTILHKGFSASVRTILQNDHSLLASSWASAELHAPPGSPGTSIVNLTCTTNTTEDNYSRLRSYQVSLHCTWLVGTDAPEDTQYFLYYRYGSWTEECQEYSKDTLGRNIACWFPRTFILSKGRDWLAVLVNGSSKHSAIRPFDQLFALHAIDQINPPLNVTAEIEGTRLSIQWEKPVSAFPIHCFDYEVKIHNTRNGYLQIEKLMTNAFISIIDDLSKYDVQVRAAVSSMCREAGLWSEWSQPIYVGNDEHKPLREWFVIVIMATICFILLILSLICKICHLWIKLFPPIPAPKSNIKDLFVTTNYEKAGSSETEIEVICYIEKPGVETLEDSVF
T1 sequence (looked up) 2: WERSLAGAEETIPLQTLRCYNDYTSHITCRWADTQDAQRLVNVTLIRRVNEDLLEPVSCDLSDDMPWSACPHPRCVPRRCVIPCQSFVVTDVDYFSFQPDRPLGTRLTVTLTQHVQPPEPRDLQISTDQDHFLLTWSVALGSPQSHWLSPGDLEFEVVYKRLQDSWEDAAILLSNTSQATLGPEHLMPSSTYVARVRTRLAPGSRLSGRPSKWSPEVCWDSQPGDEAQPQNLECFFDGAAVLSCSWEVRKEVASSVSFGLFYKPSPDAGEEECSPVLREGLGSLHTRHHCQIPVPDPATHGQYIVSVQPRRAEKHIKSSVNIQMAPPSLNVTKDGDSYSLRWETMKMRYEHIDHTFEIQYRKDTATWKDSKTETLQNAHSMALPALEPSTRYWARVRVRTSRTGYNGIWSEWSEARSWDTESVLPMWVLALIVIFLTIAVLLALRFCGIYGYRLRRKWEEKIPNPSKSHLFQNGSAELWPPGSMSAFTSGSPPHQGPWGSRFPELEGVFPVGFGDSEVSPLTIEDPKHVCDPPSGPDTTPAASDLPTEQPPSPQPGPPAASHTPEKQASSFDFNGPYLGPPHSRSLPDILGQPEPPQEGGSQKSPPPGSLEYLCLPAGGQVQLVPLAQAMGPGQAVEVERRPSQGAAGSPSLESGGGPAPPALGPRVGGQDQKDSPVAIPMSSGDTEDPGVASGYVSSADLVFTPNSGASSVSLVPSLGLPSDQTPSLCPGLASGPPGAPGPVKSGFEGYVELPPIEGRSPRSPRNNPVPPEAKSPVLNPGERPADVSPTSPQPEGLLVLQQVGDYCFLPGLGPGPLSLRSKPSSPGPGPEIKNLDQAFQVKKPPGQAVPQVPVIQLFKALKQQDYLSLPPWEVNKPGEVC
The experiment can be described thus: cell-based or functional assay.

The target in experiment [2] is T1, native IL-5R a/β complex on TF-1 cells. The experiment is described as follows: cell-based or functional assay. This is another data set of the same source.
The target in experiment [3] is chimeric IL-5Ra/EGFR receptor (human, UniProt Q01344 21-342). The experiment is described as follows: cell-based or functional assay.
For experiment [4], the target named is T2, IL-5RaECD (the extracellular domain (ECD) of the human IL-5 receptor a chain) (human, UniProt Q01344 21-342, extensively glycosylated).
T2 construct: extracellular domain; also called IL-5RαECD; soluble IL-5Ra
T2 sequence (Q01344 21-342, looked up): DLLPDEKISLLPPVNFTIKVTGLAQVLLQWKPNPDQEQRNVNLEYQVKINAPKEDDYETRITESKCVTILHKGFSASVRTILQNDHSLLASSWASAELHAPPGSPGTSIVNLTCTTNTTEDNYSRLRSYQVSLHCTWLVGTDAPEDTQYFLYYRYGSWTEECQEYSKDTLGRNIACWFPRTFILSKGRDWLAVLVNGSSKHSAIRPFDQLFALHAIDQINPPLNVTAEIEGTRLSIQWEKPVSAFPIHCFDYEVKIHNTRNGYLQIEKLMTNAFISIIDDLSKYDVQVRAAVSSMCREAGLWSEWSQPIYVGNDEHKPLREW
The experiment is described as follows: competition with [125I] IL-5 for binding to IL-5Ra ECD. The protocol:
(§1) Binding affinities of synthetic peptides for IL-5Ra were measured in a competition binding assay using radio-iodinated IL-5. Immulon 4 (Dynatech) microtiter wells were coated with streptavidin (Sigma) by incubating 100 ul of a 50 ug/ml solution in PBS for 30 min. at 37. The wells were blocked with 200 ul of 1% BSA in PBS for 15 min. at 37, followed by 100 III of biotinylated monoclonal antibody, designated mAb 179, at 5 u. g/ml in PBS. Soluble IL-5Ra was then immobilized in the wells by incubating 100 µl of a solution of soluble receptor harvest diluted 1: 5000 in PBS/0.1% BSA for 1 hr. at 4. After washing away unbound receptor, 50 ul of various concentrations of test peptide diluted in PBS/0.1% BSA were added to the wells, followed by 50 µl of a fixed concentration of [₁₂₅I] IL-5 (Amersham). The binding reactions were incubated at 4 C for 2 hr, then washed with PBS to remove unbound [₁₂₅I] IL-5. Bound [₁₂₅I] IL-5 was determined by gamma counting.
(§2) Total binding was defined by the amount of [₁₂₅I] IL-5 bound in the absence of any competitor. Non-specific binding was defined by the amount of [₁₂₅I] IL-5 bound in the presence of 30 nM IL-5. Peptide binding data was analyzed to determine the peptide concentration required to reduce specific [₁₂₅I]

Experiment [5] addresses T1, native IL-5R a/β complex on TF-1 cells. The experiment can be described thus: competition with [125I] IL-5 binding to TF-1 cells; AF 18748 as competitor.
Experiment [6] deals with T2, IL-5RaECD (the extracellular domain …). The experiment can be described thus: scintillation proximity competition assay, 20 pM [125I] IL-5, soluble IL-5Ra on beads; dimer of the printed monomer. The protocol: Binding affinities of synthetic peptides for IL-5Ra were measured in a scintillation proximity assay (SPA) using radio-iodinated IL-5. Streptavidin coated SPA beads (Amersham) were suspended in IL-5 binding buffer (phosphate buffered saline, 0.1% bovine serum albumin, 0.2% NaN3) at 2 mg beads/ml of buffer. Biotinylated mAb 179 was adsorbed onto the beads at a ratio of 2 ig Ab/mg beads by incubating the beads and antibody with agitation for at least 2 h. at 4. The beads were pelleted at 2500 rpm and resuspended at 2 mg/ml in binding buffer. Soluble IL-5Ra was then adsorbed onto the beads by diluting a solution of soluble receptor harvest 1:500 into the bead suspension and incubating with agitation for 2 hr at 4. The beads were again pelleted at 2500 rpm and resuspended at 2 mg/ml in binding buffer. Competition binding assays were carried out in 100p1 reactions in white polystyrene microtiter plates. These reactions contained 0.05 mg of receptor coated SPA beads, various concentrations of test peptide diluted in binding buffer, and 20 pM [₁₂₅I] IL-5 (Amersham). The plates were incubated at room temperature for 1 hour with agitation, then centrifuged for 5 min at 1500 rpm followed by scintillation counting on a Topcount instrument (Packard). Total binding was defined by the amount of [₁₂₅I] IL-5 bound in the absence of any competitor. Non-specific binding was defined by the amount of [₁₂₅I] IL-5 bound in the presence of 30 nM IL-5. Peptide binding data was analyzed to determine the peptide concentration required to reduce specific [₁₂₅I] IL-5 binding by 50% (IC₅₀). In each instance, the dimer has both intramolecular and intermolecular disulfide linkages as shown generically below: […]
(In general: Scintillation proximity formats need no separation of bound from free tracer.)

The target is the same in experiment [7]. The experiment is described as follows: competition with [125I] IL-5 for binding to IL-5Ra ECD; peptide after 10 days (disulfide-linked dimer). The protocol:
as §1, §2

Broadly, the IC50 is the midpoint of a concentration-inhibition curve.

B1: AF 18748 (a dimer of residues 32-50 of SEQ ID NO: 8) (peptide)
peptide: H-TGGGDGYVCVEWARCPTCK-OH
modifications: disulfide 15-18; also: homodimer via interchain disulfide Cys9-Cys9
notes: Synthetic dimer made with orthogonal protecting groups
Consider B1, for which the “inhibition of IL-5 induced human eosinophil adhesion to immobilized IgG, IC50” value in experiment [1] turned out to be 0.348 nM. In addition, the “Microphysiometer pIC50 (block of TF-1 cell response to IL-5)” value in experiment [2] is 9.6 negative log of the molar IC50. Besides, in experiment [3], the “EC50 (read off the curve), luciferase reporter activity of IL-5Ra/EGFR Ba/F3 cells” value is ~0.03 nM. Moreover, the IC50 amounted to 0.78 nM in experiment [4] and 0.4 nM in experiment [5]. The “SPA pIC50” value in experiment [6] was 9.1 negative log of the molar IC50.

B2: dimeric form of AF17362 (peptide)
peptide: TGGGDGYVCVEWARCPTCK
modifications: disulfide 15-18; also: dimer, interchain disulfide between Cys9 of each chain
notes: Formed by air oxidation in 50 mM Tris pH 7.8; said to be indistinguishable from AF18748; also called AF17362 after 10 days at room temperature; spontaneously formed disulfide-linked dimer
As for B2, the IC50 in experiment [7] worked out at 0.55 nM.
